The record followed here is article PMC3420232.

In this assay the target is wild-type human TRAILR1 (human), O00220. The assay is described as follows: radioligand binding; competition on cells: 4x10^5 murine fibroblasts expressing the (chimeric) TRAIL receptor in PFA (PBS, 2% FCS, 0.002% sodium azide), 83 ng/ml 125I-TRAIL with or without unlabeled recombinant human TRAIL (83-5300 ng/ml), 4 hours on ice; cells spun through phthalate oil; 68 kDa used for TRAIL. The following applies: remark: other sources report otherwise.

B1: Flag-tagged recombinant human TRAIL (sTRAIL), unlabeled, P50591 95-281 (ligand)
chain: TSEETISTVQEKQQNISPLVRERGPQRVAAHITGTRGRSNTLSSPNSKNEKALGRKINSWESSRSGHSFLSNLHLRNGELVIHEKGFYYIYSQTYFRFQEEIKENTKNDKQMVQYIYKYTSYPDPILLMKSARNSCWSKDAEYGLYSIYQGGIFELKENDRIFVSVTNEHLIDMDHEASFFGAFLVG
Consider B1, for which the 50% inhibitory concentration (IC50) turned out to be 17.7 nM.
